# B1: Frizzled-5 Fc Fusion protein (Fc fusion, human, UniProt Q13467 27-238, looked up)
# chain: ASKAPVCQEITVPMCRGIGYNLTHMPNQFNHDTQDEAGLEVHQFWPLVEIQCSPDLRFFLCSMYTPICLPDYHKPLPPCRSVCERAKAGCSPLMRQYGFAWPERMSCDRLPVLGRDAEVLCMDYNRSEATTAPPRPFPAKPTLPGPPGAPASGGECPAGGPFVCKCREPFVPILKESHPLYNKVRTGQVPNCAVPCYQPSFSADERTFATFW
# How the values were obtained:
# [1] = molecular target: T1, recombinant human SFRP2 (secreted frizzled-related protein 2) with C-terminal hexahistidine tag (human, UniProt Q96HF1 25-295); assay: ELISA
# T1 sequence (looked up): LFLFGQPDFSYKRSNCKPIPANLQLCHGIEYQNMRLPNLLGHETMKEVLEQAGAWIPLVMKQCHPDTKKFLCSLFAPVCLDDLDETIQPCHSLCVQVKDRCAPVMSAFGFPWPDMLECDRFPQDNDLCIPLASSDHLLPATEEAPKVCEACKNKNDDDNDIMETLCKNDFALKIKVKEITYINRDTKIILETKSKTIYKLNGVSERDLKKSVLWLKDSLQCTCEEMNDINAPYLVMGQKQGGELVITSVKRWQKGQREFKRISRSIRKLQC
# [2] = molecular target: T2, recombinant human Wnt5a (human, UniProt P41221 62-380); assay: ELISA
# T2 sequence (looked up): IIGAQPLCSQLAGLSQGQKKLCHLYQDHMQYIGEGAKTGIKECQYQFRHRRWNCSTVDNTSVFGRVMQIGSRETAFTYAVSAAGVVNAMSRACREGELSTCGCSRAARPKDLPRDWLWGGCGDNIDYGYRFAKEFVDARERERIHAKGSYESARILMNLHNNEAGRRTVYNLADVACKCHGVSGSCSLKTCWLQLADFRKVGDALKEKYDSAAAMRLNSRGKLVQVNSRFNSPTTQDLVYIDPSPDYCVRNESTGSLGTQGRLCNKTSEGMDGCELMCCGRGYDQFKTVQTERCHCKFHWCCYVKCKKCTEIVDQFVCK
binder,measurement,setting,value
B1,EC50,[1],205 nM
same,Kd,[1],103 nM
same,EC50,[2],216 nM
same,Kd,[2],108 nM

# Source: publication PMC5675522 (Angiogenesis, 2017)
